Data reported in paper PMC10259489, “Identification of epigenetic modulators as determinants of nuclear size and shape” (eLife, 2023).

B1: GST-lamin C (aa 389–572), C-terminal region of lamin C (domain or fragment, human, UniProt P02545-2 389-572, looked up)
chain: LSPSPTSQRSRGRASSHSSQTQGGGSVTKKRKLESTESRSSFSQHARTSGRVAVEEVDEEGKFVRLRNKSNEDQSMGNWQIKRQNGDDPLLTYRFPPKFTLKAGQVVTIWAAGAGATHSPPTDLVWKAQNTWGCGNSLRTALINSTGEEVAMRKLVRSVTVVEDDEDEDGDDLLHHHHVSGSRR
notes: pGEX4T1 construct; source: E. coli Rosetta 2, purified (glutathione Sepharose 4B); not shown: GST, N-terminal, kept
B2: GST-lamin A (506–646) (domain or fragment, human, UniProt P02545 506-646, looked up)
chain: HSPPTDLVWKAQNTWGCGNSLRTALINSTGEEVAMRKLVRSVTVVEDDEDEDGDDLLHHHHGSHCSSSGDPAEYNLRSRTVLCGTCGQPADKASASGSGAQVGGPISSGSSASSVTVTRSYRSVGGSGGGSFGDNLVTRSY
notes: detected by anti-GST; also called GST-lamin A (pACS37); source: E. coli Rosetta 2, purified (glutathione Sepharose 4B); not shown: GST, N-terminal, kept

Key:
[1] = biological target: T1, GST-lamin A (aa 389–646), entire Ig-fold and C-terminus (human, UniProt P02545 389-646); assay: pull-down; calf thymus histone pull-down with GST-lamin A (wild type or C522A) and GST-lamin C (389–572) co-incubated, with or without DTT; conditions: both partners purified
T1 construct: pGEX4T1 construct; also called full-length lamin A tail; source: E. coli Rosetta 2, purified (glutathione Sepharose 4B); not shown: GST, N-terminal, kept
T1 sequence (looked up): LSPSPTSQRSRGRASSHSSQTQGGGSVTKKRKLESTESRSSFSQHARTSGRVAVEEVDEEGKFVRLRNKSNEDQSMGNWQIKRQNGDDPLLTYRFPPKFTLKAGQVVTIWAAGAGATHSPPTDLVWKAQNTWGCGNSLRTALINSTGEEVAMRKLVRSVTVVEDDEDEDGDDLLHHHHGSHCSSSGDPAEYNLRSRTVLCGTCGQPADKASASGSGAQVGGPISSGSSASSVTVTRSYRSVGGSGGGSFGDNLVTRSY

[2] = biological target: T2, histone H3R8me2/K9me2 peptide (R8me2, K9me2); assay: peptide or protein array; MODified histone peptide array (Active Motif, 384 peptides spotted); 10 nM purified GST-lamin A (pACS37) in 100 mM KCl, 20 mM HEPES pH 7.5, 1 mM EDTA, 0.1 mM DTT, 10% glycerol, room temperature 1 hr; detected with anti-GST and HRP secondary, ECL; conditions: both partners purified
T2 chain: ARTKQTARKSTGGKAPRKQ

| Binder | binding result [1] | fold signal against H3K9me2 [2] [fold] |
| --- | --- | --- |
| B1 | binds | – |
| B2 | – | ~5 |
